These results are taken from article PMC10269531, “NH125 Sensitizes Staphylococcus aureus to Cell Wall-Targeting Antibiotics through the Inhibition of the VraS Sensor Histidine Kinase” (Microbiology Spectrum, 2023).

Data set [1] has as its target T1, VraS sensor histidine kinase (GST-VraS) (Staphylococcus aureus, UniProt Q99SZ7).
T1 construct: GST-tagged intracellular domain, amino acids 85 to 347 (DHp and CAT)
The experiment in a line: PK/LDH-coupled ATPase (autophosphorylation) assay, NADH absorbance at […] nm; Michaelis-Menten inhibition kinetics. Type of data set: biochemical.

The subject of data set [2] is Nc1ncnc2c1ncn2[C@@H]1O[C@H](COP(=O)(O)OP(=O)(O)OP(=O)(O)O)[C@@H](O)[C@H]1O. The experiment in a line: PK/LDH-coupled ATPase assay, Michaelis-Menten kinetics (KM of ATP). Type of data set: biochemical, Staphylococcus aureus. Conditions: Mg2+ catalytic domain (CAT) that binds ATP.

T1 sequence (Q99SZ7 85-347): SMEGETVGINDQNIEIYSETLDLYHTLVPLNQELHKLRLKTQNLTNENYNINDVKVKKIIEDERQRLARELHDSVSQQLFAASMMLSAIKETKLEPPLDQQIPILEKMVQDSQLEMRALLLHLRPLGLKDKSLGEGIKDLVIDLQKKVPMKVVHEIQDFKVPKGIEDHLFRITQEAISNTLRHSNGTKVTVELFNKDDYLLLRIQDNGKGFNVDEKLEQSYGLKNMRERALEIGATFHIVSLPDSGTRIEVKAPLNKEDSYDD

Consider `CCCCCCCCCCCCCCCC[n+]1ccn(Cc2ccccc2)c1C` [NH125], for which the IC50 – broadly, the concentration needed to halve the response being measured – in data set [1] turned out to be 41 ± 5 µM.
Consider “VraS sensor histidine kinase (GST-VraS) (Staphylococcus aureus subsp. aureus N315)”, for which, in data set [2], the Km (usually the concentration of substrate that gives half-maximal velocity) turned out to be 6.7 ± 1.6 µM; the Vmax (commonly the rate approached at saturating substrate) came to 0.000108 µmol/min; the kcat (as a rule, the number of substrate molecules converted per active site and unit of time at saturation) was found to be 0.0169 ± 0.0056 s⁻¹; the kcat/Km (commonly the second-order rate constant that governs catalysis at low substrate concentration) was 2600 ± 600 M⁻¹ s⁻¹.
